Test [1] deals with T1, biotinylated TGPAvi (Galaxea fascicularis (coral), biotin on the Avi-tag (BirA)).
T1 chain 1: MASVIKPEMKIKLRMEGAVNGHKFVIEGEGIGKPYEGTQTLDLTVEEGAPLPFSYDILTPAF
T1 chain 2: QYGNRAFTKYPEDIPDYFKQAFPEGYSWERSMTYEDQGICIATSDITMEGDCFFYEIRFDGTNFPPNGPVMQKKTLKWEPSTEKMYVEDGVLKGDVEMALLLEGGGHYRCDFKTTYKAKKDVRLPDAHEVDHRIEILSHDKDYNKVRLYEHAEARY
Nature of the test: BLI.

The target in test [2] is T1, biotinylated TGPAvi. Nature of the test: BLI. For orientation: Biolayer interferometry detects binding as a change in optical thickness at a sensor tip.

Experimental findings from article PMC7729955 (2020) are described below.

The koff is the rate constant with which the complex falls apart. The low end stands for a long-lived complex, the high end for a short-lived complex. As a reminder, the Kd is the free concentration of one partner at which half of the binding sites on the other are occupied at equilibrium, for simple one-to-one binding. Low readings indicate tighter binding, high ones weaker binding.

B1: sybody 92 (VHH)
VHH: QVQLVESGGGLVQAGGSLRLSCAASGFPVDTQWMHWYRQAPGKEREWVAAISSTGRSTFYADSVKGRFTISRDNAKNTVYLQMNSLKPEDTAVYYCTVYVGNRYRGQGTQVTVS
For B1, the dissociation rate constant (koff) in test [1] turned out to be 0.00066 s⁻¹. The dissociation constant (Kd) in test [2] was found to be 3.3 nM.

B2: sybody 44 (VHH)
VHH: QVQLVESGGGLVQAGGSLRLSCAASGFPVGRASMWWYRQAPGKEREWVAAISSYGWVTAYADSVKGRFTISRDNAKNTVYLQMNSLKPEDTAVYYCEVSVGTGYRGQGTQVTVS
B2 yielded an off-rate (koff) in test [1] of 0.00085 s⁻¹. In test [2], this molecule returned an equilibrium dissociation constant (Kd) of 4.4 nM.

B3: sybody 66 (VHH)
VHH: QVQLVESGGGLVQAGGSLRLSCAASGFPVMENSMYWYRQAPGKEREWVAAITSQGSWTWYADSVKGRFTISRDNAKNTVYLQMNSLKPEDTAVYYCHVSVGTNYTGQGTQVTVS
Take B3: the off-rate (koff) in test [1] came to 0.0013 s⁻¹. Further, binding in test [2] was characterised by a dissociation constant (Kd) of 7.8 nM.

B4: sybody 68 (VHH)
VHH: QVQLVESGGGLVQAGGSLRLSCAASGFPVNAVTMWWYRQAPGKEREWVAAIKSQGAGTWYADSVKGRFTISRDNAKNTVYLQMNSLKPEDTAVYYCHVYVGAYRYEGRGTQVTVS
Take B4: the koff in test [1] amounted to 0.0012 s⁻¹. The same molecule yielded a Kd in test [2] of 10.4 nM.
